Patent publication US20100285583A1, “COMPOUNDS AND METHODS FOR INHIBITING PLATELET AGGREGATION” (priority 2009, published 2010)

Assays:
[1] = Surface plasmon resonance, immobilized sulfatide liposomes; conditions: SPR, estimated; read-out: dissociation constant (KD), sulfatide binding
Description: (§1) Surface plasmon resonance (SPR) binding experiments were performed on a BIAcore X instrument using L1 sensorchips coated with ˜0.5 mM of mixed sulfatides or PtdIns(4,5)P2 size calibrated liposomes. N-PTB domain or its mutants binding experiments were performed in a degassed solution containing 10 mM Tris-HCI (pH 7.4) and 150 mM NaCl. This buffer was used during equilibration, association and dissociation phases. Proteins were added to this buffer at the indicated concentrations. Regeneration of the phospholipid bilayer after dissociation phase was carried out using 20 mM NaOH. For competition SPR, increasing molar amounts of dioctanoyl PtdIns(4,5)P2 were preincubated with 5 μM N-PTB for 20 min at room temperature. The entire reaction was then exposed to an L1 sensorchip containing immobilized sulfatide liposomes (˜0.5 mM).

[2] = Competition SPR, PtdIns(4,5)P2 pre-incubated protein on sulfatide liposomes; conditions: 5 μM protein pre-incubated with increasing PtdIns(4,5)P2; read-out: IC50 of PtdIns(4,5)P2 competition for sulfatide binding
Description: as §1

Human washed platelets [3] = test: Platelet immunofluorescence analysis (subcellular localization); type: cell-based; conditions: 1.9 μM
Description: Washed platelets (50 μl of […] in Tyrode's albumin buffer) were incubated with 1.9 μM of PTB domain constructs for 5 min at room temperature in the presence of 0.25 g/L fibrinogen. Aggregation was initiated by the addition of 10 μM TRAP. Reactions were incubated at room temperature unless otherwise indicated. Platelets were fixed with 0.4 mL of 3.7% formaldehyde in Phosphate Buffered Saline (PBS) for 30 min. Next, 20% goat serum was added to the fixed platelets, and 60% of the total fixed reaction was centrifuged using a Shandon cytospinner onto a Shandon coated cytoslide to achieve the appropriate platelet density for analysis. Slides were then washed twice with PBS for 10 min. Platelets were permeabilized with 0.5% Triton X-100 in PBS for 10 min and then blocked with 20% goat serum in PBS with 0.1% Triton X-100 for 1 h at room temperature. Platelets were washed 3 times with PBS with 0.1% Triton for 10 minutes and further incubated overnight with the anti-Dab2 antibody 1:100 (anti-p96; BD Transduction) in PBS with 0.1% Triton X-100 and 10% goat serum at 4° C. in a humidity chamber. Platelets were then washed and incubated with the anti-mouse Cy-3 conjugated goat antibody 1:250 and Alexa488 conjugated phalloidin (25 μg/mL) in PBS with 0.1% Triton X-100 and 10% goat serum for 2 h. Platelets were washed again and observed on an Olympus IX71 microscope using the Softworx Applied Precision software.
Mean pixel intensity was determined for 400 platelets from four fields each for 3 min and 10 min of treatments by manually drawing circles around individual platelets using the 2D Polygon tool in the Softworx software. For each time point, a threshold of significant mean pixel intensity was defined for the experiment. The percentage of countable platelets to exceed the threshold was calculated for each field and the average of four fields was computed with standard deviation. The ratio of internalization:binding is the quotient of these averages for a treatment.

Human washed platelets [4] = test: Platelet adhesion assay; type: cell-based; conditions: 1.9 μM, TRAP
Description: Human washed platelets were incubated with BSA, Dab2 PTB or Dab2 PTB^4M (1.9 μM each) for 5 min at room temperature in the presence of 0.25 g/L fibrinogen. Aggregation was initiated by the addition of 10 μM TRAP, and reactions were incubated 20 min at 37° C. Samples were fixed with 3.7% formaldehyde in PBS, stained with Wright stain, and photographed. Wright stain was eluted with 20% ethanol, and absorbance was quantified at 415 nm.

[5] = test system: platelet and leukocyte mixtures; test: Platelet-leukocyte aggregation assay (flow cytometry, CD42b on leukocytes); type: cell-based, human; conditions: ADP 30 μM, sulfatide liposomes
Description: Whole blood was collected as indicated above and centrifuged at 200 g to separate the blood from plasma and red blood cell fractions. Plasma and buffy coat layer were carefully removed and diluted 1:1 with PBS. The dilution was then layered onto a Ficoll Plus gradient and spun at 200 g for 20 min. The enriched platelet and leukocyte layer was removed, diluted with PBS, centrifuged and the pellet resuspended in Tyrode's Albumin buffer to a concentration of ˜3×10^5 platelets/μL and 3×10^3 leukocytes/μL. Isolated platelet-leukocyte mixtures were remained unactivated or activated with ADP (30 μM). Both unactivated and activated platelets were incubated for 10 min at 23° C. with liposomes (50 μg/mL) either without (liposomes control) or with sulfatides, and N-PTB constructs (1 μM). Reactions were fixed with 1% formalin and incubated with APC-labeled CD42b (Biolegend) and FITC-labeled CD45 (Biolegend) antibodies. Bound antibodies were quantified using a FacsAria flow cytometer.
Platelet P-selectin mediates platelet-leukocyte interactions through binding of leukocyte PSGL-1 (Merten 2005). […] Platelet binding of leukocytes was quantified through the fluorescence of allophycocyanin (APC) labeled anti-human CD42b (platelet marker) detected on leukocytes. The fluorescence was detected using flow cytometry analysis of platelet-leukocyte mixtures.

[6] = test system: platelet and leukocyte mixtures; test: Platelet-leukocyte aggregation under flow; type: cell-based, human; conditions: 10 μM, with sulfatide liposomes
Description: The microfluidic device consisted in a simple straight channel 500 μm wide, 50 μm deep and 3.62 cm long. A silicon master stamp was fabricated on a <100> silicon substrate following a previously described process (Ross et al. Ann. Rev. Med. 1987, 38:71-79). Flow was driven using a micro-syringe pump (Cole-Parmer) with a 1 mL syringe connected to the channel inlet by 30 cm of Cole-Parmer gauge 20 Teflon tubing. After priming the system with the sample, the pump was set to 0.05 mL/h (equivalent to an average velocity of 0.55 mm/sec in the channel), which is in the range of in vivo blood velocity (0.1-1.5 mm/sec (9)) and causes a shear rate of 70 sec−1. This flow rate was maintained for 1 min prior to the experiments. Platelets flowing through the channel were monitored using an inverted light microscope (DMI 6000B, Leica Microsystems) equipped with a digital camera (DFC420, Leica Microsystems).
To quantify the ability of N-PTB to block platelet-leukocyte binding under physiological flow conditions, platelet and leukocyte mixtures were flown through a microfluidics device, as described above, and aggregation was measured using light microscopy. Untreated cell suspensions ([…]) were flown for 10 minutes and the channel was scanned for leukocyte adhesion and inclusion into platelet aggregates and representative pictures were taken (FIG. 18A-B).

Kd [1]: ~1930 nM
IC50 [2]: ~2000 nM
B1: N-PTB: N-terminal phosphotyrosine binding domain (residues 1-241) of human Disabled-2 (Dab2), expressed as GST-fusion in E. coli (protein)
chain: MSNEVETSATNGQPDQQAAPKAPSKKEKKKGPEKTDEYLLARFKGDGVKYKAKLIGIDDVPDARGDKMSQDSMMKLKGMAARGRSQGQHKQRIWVNISLSGIKIIDEKTGVIEHEHPVNKISFIARDVTDNRAFGYVCGGEGQHQFFAIKTGQQAEPLVVDLKDLFQVIYNVKKKEEEKKKIEEASKAVENGSEALMILDDQTNKLKSGVDQMDLFGDMSTPPDLNSPTESKDILLVDLNS
localization at the platelet surface (Human washed platelets [3]; 3 min after TRAP stimulation): clearly localized at the platelet surface
internalization (Human washed platelets [3]; 10 min after activation): internalized
effect on platelet adhesion to fibrinogen (Human washed platelets [4]): did not significantly affect platelet adhesion to fibrinogen
inhibition of platelet-leukocyte binding [5]: decreased platelet binding to leukocytes
inhibition of platelet-leukocyte binding ([5]; listed as N-PTB^4M): no inhibition of platelet-leukocyte binding
effect on leukocyte adhesion and platelet-leukocyte aggregates under flow [6]: great reduction in observed leukocyte adhesion as well as platelet-leukocyte aggregates
effect on leukocyte adhesion and platelet-leukocyte aggregates under flow ([6]; listed as N-PTB^4M): unable to affect the adhesion and aggregation of leukocytes
